Where “and” joins values, the source holds several entries; their conditions need not be identical. Identical values can stand only once. Like-named read-outs stand apart in the source and are kept apart here. One block for each substance: values may come before it.
Legend:
[1] = biological target: ErbB1 Y900 non-phosphorylated peptide, rhodamine-labelled (human); assay: fluorescence polarisation; saturation binding in solution: rhodamine peptide fixed at 10 nM, protein titrated 0.002-10 uM, 20 min at room temperature; assay buffer 20 mM HEPES, 100 mM KCl, 0.1% Tween-20, 5 mM DTT, pH 7.8; apparent KD
[2] = biological target: SYK-NC (Homo sapiens) (UniProt P43405); conditions: cited from earlier work
[3] = biological target: ABL2 (Homo sapiens) (UniProt P42684); conditions: cited from earlier work
[4] = biological target: ABL2 (Homo sapiens) (UniProt P42684); conditions: cited from earlier work; remark: listed apart in the source
[5] = biological target: BMX (Homo sapiens) (UniProt P51813); conditions: cited from earlier work
[6] = biological target: YES1 (Homo sapiens) (UniProt P07947); conditions: cited from earlier work
[7] = biological target: RASA1-N (Homo sapiens) (UniProt P20936); conditions: cited from earlier work
[8] = biological target: CRKL (Homo sapiens) (UniProt P46109); conditions: cited from earlier work
[9] = biological target: CRK (Homo sapiens) (UniProt P46108); conditions: cited from earlier work
[10] = biological target: SHB (Homo sapiens) (UniProt Q15464); conditions: cited from earlier work
[11] = biological target: TNS1 (Homo sapiens) (UniProt Q9HBL0); conditions: cited from earlier work
[12] = biological target: PIK3R3-NC (Homo sapiens) (UniProt Q92569); conditions: cited from earlier work
[13] = biological target: PLCG1-NC (Homo sapiens) (UniProt P19174); conditions: cited from earlier work
[14] = biological target: SLA2 (Homo sapiens) (UniProt Q9H6Q3); conditions: cited from earlier work
[15] = biological target: SYK-NC (Homo sapiens) (UniProt P43405); conditions: cited from earlier work; remark: listed apart in the source
[16] = biological target: SHC1-PTB (Homo sapiens) (UniProt P29353); conditions: cited from earlier work
[17] = biological target: SH2B3 (Homo sapiens) (UniProt Q9UQQ2); conditions: cited from earlier work
[18] = biological target: RASA1-N (Homo sapiens) (UniProt P20936); conditions: cited from earlier work; remark: listed apart in the source
[19] = biological target: VAV2 (Homo sapiens) (UniProt P52735); conditions: cited from earlier work
[20] = biological target: ABL2 (Homo sapiens) (UniProt P42684); conditions: cited from earlier work; remark: listed apart in the source
[21] = biological target: PIK3R2-NC (Homo sapiens) (UniProt O00459); conditions: cited from earlier work
[22] = biological target: CRKL (Homo sapiens) (UniProt P46109); conditions: cited from earlier work; remark: listed apart in the source
[23] = biological target: ABL2 (Homo sapiens) (UniProt P42684); conditions: cited from earlier work; remark: listed apart in the source
[24] = biological target: SRC (Homo sapiens) (UniProt P12931); conditions: cited from earlier work
[25] = biological target: YES1 (Homo sapiens) (UniProt P07947); conditions: cited from earlier work; remark: listed apart in the source
[26] = biological target: RASA1-N (Homo sapiens) (UniProt P20936); conditions: cited from earlier work; remark: listed apart in the source
[27] = biological target: CRK (Homo sapiens) (UniProt P46108); conditions: cited from earlier work; remark: listed apart in the source
[28] = biological target: ABL2 (Homo sapiens) (UniProt P42684); conditions: cited from earlier work; remark: listed apart in the source
[29] = biological target: CRKL (Homo sapiens) (UniProt P46109); conditions: cited from earlier work; remark: listed apart in the source
[30] = biological target: SYK-NC (Homo sapiens) (UniProt P43405); conditions: cited from earlier work; remark: listed apart in the source
[31] = biological target: PLCG2-NC (Homo sapiens) (UniProt P16885); conditions: cited from earlier work
[32] = biological target: TNS4 (Homo sapiens) (UniProt Q8IZW8); conditions: cited from earlier work
[33] = biological target: HSH2D (Homo sapiens) (UniProt Q96JZ2); conditions: cited from earlier work
[34] = biological target: SHC1-PTB (Homo sapiens) (UniProt P29353); conditions: cited from earlier work; remark: listed apart in the source
[35] = biological target: ABL2 (Homo sapiens) (UniProt P42684); conditions: cited from earlier work; remark: listed apart in the source
[36] = biological target: NCK2 (Homo sapiens) (UniProt O43639); conditions: cited from earlier work
[37] = biological target: ABL2 (Homo sapiens) (UniProt P42684); conditions: cited from earlier work; remark: listed apart in the source
[38] = biological target: ABL1 (Homo sapiens) (UniProt P00519); conditions: cited from earlier work
[39] = biological target: GRB2 (Homo sapiens) (UniProt P62993); conditions: cited from earlier work
[40] = biological target: SHC1-PTB (Homo sapiens) (UniProt P29353); conditions: cited from earlier work; remark: listed apart in the source
[41] = biological target: PLCG1 C-terminal SH2 domain (human); assay: SPR; Biacore 3000; 6X His SH2 proteins held on a Ni-NTA chip, dye-free peptides in solution, equilibrium
[42] = biological target: PIK3R3 C-terminal SH2 domain (human); assay: as above
[43] = biological target: PIK3R1 N-terminal SH2 domain (human); assay: as above
[44] = biological target: SYK-N (Homo sapiens) (UniProt P43405); conditions: cited from earlier work
[45] = biological target: ErbB2 pY685 phosphopeptide, rhodamine-labelled (human); assay: fluorescence polarisation; saturation binding in solution: rhodamine peptide fixed at 10 nM, protein titrated 0.002-10 uM, 20 min at room temperature; assay buffer 20 mM HEPES, 100 mM KCl, 0.1% Tween-20, 5 mM DTT, pH 7.8; apparent KD
[46] = biological target: MET pY1313 phosphopeptide, rhodamine-labelled; assay: as above
[47] = biological target: ErbB1 pY801 phosphopeptide, rhodamine-labelled (human); assay: as above
[48] = biological target: SH3BP2 SH2 domain (human) (UniProt P78314); assay: peptide or protein array; SH2/PTB proteins spotted on aldehyde slides, rhodamine peptide titrated in buffer B (20 mM HEPES, 100 mM KCl, 0.1% Tween-20, 5 mM DTT, pH 7.8), 1 h at room temperature; replicate assays
[49] = biological target: SYK tandem SH2 domains (human); assay: as above
[50] = biological target: YES1 SH2 domain (human) (UniProt P07947); assay: as above
[51] = biological target: BLK SH2 domain (human) (UniProt P51451); assay: as above
[52] = biological target: SRC (Homo sapiens) (UniProt P12931); conditions: cited from earlier work; remark: listed apart in the source
[53] = biological target: SYK-N (Homo sapiens) (UniProt P43405); conditions: cited from earlier work; remark: listed apart in the source

Chain of RASA1-N (Homo sapiens) (P20936 176-446): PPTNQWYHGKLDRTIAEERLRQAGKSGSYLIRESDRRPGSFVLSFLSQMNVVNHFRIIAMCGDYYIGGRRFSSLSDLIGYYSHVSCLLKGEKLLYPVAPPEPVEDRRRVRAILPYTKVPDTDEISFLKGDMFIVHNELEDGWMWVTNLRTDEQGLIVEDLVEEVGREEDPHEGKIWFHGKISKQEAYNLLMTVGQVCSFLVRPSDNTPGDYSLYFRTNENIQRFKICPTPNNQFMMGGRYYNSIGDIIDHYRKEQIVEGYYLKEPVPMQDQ
Chain of CRKL (Homo sapiens) (P46109 9-107): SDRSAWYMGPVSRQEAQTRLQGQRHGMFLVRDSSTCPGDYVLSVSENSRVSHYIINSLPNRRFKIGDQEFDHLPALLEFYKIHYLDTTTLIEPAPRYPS
Chain of SHC1-PTB (Homo sapiens) (P29353 483-583): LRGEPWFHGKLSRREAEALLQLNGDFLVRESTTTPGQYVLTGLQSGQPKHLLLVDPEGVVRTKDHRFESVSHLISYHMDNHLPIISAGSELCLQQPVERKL
Chain of ABL2 (Homo sapiens) (P42684 168-268): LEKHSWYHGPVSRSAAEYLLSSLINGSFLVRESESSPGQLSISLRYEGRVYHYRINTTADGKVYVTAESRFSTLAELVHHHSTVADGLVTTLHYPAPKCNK
Chain of YES1 SH2 domain (human) (P07947 158-255): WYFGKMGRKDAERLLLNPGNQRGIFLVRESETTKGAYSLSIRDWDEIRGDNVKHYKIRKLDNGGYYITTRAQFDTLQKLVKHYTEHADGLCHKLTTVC
Chain of CRK (Homo sapiens) (P46108 8-123): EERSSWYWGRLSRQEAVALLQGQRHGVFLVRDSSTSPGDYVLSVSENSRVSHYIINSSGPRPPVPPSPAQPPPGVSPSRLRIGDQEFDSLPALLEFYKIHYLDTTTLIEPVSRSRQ
Chain of YES1 (Homo sapiens) (P07947 153-260): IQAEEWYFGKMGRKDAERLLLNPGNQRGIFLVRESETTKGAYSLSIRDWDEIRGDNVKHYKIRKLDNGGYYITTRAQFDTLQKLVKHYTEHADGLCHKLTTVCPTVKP
Chain of SH3BP2 SH2 domain (human) (P78314 457-555): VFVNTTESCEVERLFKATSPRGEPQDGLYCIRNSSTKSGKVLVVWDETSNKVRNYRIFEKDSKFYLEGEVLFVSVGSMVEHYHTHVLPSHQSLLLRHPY
Chain of BLK SH2 domain (human) (P51451 124-220): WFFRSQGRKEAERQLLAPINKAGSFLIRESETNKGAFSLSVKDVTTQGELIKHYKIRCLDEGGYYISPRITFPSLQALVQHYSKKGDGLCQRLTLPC
Chain of SLA2 (Homo sapiens) (Q9H6Q3 89-196): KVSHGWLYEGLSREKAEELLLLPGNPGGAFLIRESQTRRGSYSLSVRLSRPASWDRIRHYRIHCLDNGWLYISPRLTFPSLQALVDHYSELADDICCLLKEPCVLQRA
Chain of GRB2 (Homo sapiens) (P62993 55-157): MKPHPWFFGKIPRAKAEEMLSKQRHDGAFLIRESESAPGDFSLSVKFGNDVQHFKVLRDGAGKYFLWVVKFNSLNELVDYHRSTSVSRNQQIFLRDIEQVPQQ
Chain of TNS1 (Homo sapiens) (Q9HBL0 1562-1681): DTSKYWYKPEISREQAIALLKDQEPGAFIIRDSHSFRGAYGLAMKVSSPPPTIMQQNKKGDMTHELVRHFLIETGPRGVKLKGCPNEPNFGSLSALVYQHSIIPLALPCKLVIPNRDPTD
Chain of SH2B3 (Homo sapiens) (Q9UQQ2 359-467): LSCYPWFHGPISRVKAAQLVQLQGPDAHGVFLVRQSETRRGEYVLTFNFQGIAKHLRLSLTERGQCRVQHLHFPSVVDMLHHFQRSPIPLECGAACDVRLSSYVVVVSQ
Chain of PIK3R2-NC (Homo sapiens) (O00459 325-721): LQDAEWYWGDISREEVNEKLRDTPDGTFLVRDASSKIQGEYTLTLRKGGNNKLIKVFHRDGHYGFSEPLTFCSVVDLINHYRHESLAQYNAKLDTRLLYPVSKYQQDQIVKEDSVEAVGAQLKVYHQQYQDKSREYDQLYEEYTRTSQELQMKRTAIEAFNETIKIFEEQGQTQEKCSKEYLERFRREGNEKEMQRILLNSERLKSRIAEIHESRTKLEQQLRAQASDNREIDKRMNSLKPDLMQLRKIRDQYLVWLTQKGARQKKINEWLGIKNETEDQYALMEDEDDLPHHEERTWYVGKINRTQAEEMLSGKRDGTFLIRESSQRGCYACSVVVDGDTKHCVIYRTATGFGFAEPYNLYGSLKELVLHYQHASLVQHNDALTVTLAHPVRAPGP
Chain of BMX (Homo sapiens) (P51813 291-397): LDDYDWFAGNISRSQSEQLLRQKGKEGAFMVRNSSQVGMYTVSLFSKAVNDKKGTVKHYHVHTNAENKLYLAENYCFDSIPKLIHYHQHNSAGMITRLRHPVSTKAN
Chain of PLCG2-NC (Homo sapiens) (P16885 527-740): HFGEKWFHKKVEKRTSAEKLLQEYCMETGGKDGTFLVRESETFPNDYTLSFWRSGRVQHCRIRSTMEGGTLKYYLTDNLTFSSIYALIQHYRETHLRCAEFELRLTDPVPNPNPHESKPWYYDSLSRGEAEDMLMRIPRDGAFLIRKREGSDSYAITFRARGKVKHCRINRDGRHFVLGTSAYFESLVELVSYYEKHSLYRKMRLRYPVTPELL
Chain of VAV2 (Homo sapiens) (P52735 668-772): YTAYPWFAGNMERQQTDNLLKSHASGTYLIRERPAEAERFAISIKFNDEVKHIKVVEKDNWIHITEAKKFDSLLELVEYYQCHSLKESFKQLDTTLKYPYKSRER
Chain of NCK2 (Homo sapiens) (O43639 280-380): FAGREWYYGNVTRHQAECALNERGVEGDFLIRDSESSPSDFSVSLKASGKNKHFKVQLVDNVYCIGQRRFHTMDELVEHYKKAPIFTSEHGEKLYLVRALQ
Chain of PLCG1-NC (Homo sapiens) (P19174 545-761): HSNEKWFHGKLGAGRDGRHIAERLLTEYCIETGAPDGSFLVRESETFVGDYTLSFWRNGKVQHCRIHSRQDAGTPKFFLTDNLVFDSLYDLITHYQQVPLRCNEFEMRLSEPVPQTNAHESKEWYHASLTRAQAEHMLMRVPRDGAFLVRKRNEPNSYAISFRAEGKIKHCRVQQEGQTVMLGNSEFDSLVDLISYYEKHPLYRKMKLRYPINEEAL
Chain of SHB (Homo sapiens) (Q15464 405-509): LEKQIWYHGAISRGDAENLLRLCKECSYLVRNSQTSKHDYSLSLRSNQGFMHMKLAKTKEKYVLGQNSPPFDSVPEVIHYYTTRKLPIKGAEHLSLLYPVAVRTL
Chain of ABL1 (Homo sapiens) (P00519 122-222): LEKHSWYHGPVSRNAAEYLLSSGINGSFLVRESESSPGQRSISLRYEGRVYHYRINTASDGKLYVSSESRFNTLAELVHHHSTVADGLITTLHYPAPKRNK
Chain of HSH2D (Homo sapiens) (Q96JZ2 29-130): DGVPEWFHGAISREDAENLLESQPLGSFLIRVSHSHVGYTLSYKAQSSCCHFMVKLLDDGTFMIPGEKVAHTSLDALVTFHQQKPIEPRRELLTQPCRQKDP
Chain of TNS4 (Homo sapiens) (Q8IZW8 444-561): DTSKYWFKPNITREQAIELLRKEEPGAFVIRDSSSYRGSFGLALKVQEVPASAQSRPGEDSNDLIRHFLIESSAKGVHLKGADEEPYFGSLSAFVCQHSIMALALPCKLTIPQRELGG

Kd [1]: 5420 nM
Substance: SHC2 PTB domain (from UniProt P98077 1-582) (domain or fragment)

Kd [1]: 6930 nM
Substance: PIK3R2 tandem SH2 domains (from UniProt O00459 1-728) (domain or fragment)

Substance: …pYQDPHSTAd
apparent Kd (screen) [2]: 981 nM
apparent Kd (screen) [3]: 74 nM
apparent Kd (screen) [4]: 133 nM
apparent Kd (screen) [5]: 1070 nM
apparent Kd (screen) [6]: 378 nM
apparent Kd (screen) [7]: 1320 nM
apparent Kd (screen) [8]: 2000 nM
apparent Kd (screen) [9]: 1230 nM
apparent Kd (screen) [10]: 991 nM
apparent Kd (screen) [11]: 1280 nM

Substance: …pYLSEFSLK
apparent Kd (screen) [12]: 2000 nM
apparent Kd (screen) [13]: 2000 nM
apparent Kd (screen) [14]: 2000 nM
apparent Kd (screen) [15]: 1670 nM
apparent Kd (screen) [16]: 24 nM
apparent Kd (screen) [17]: 2000 nM
apparent Kd (screen) [18]: 709 nM
apparent Kd (screen) [19]: 2000 nM
apparent Kd (screen) [20]: 221 nM
apparent Kd (screen) [21]: 2000 nM

Substance: …pYRAPTSTId
apparent Kd (screen) [22]: 1240 nM
apparent Kd (screen) [23]: 1230 nM

Substance: …pYKGLWIPEd
apparent Kd (screen) [24]: 579 nM
apparent Kd (screen) [25]: 540 nM

Substance: …pYMTPMRDKd
apparent Kd (screen) [26]: 27 nM
apparent Kd (screen) [27]: 29 nM
apparent Kd (screen) [28]: 18 nM
apparent Kd (screen) [29]: 65 nM
apparent Kd (screen) [30]: 330 nM

Substance: …pYNADGGKMd
apparent Kd (screen) [31]: 1140 nM

Substance: …pYTHQSDVWd
apparent Kd (screen) [32]: 299 nM
apparent Kd (screen) [33]: 1130 nM

Substance: …pYLGLDVPV
apparent Kd (screen) [34]: 277 nM
apparent Kd (screen) [35]: 210 nM

Substance: …pYHNQPLNPd
apparent Kd (screen) [36]: 2000 nM
apparent Kd (screen) [37]: 62 nM
apparent Kd (screen) [38]: 523 nM
apparent Kd (screen) [39]: 2000 nM
apparent Kd (screen) [40]: 321 nM

Kd [41]: 10900 nM
Kd [42]: 1470 nM
Substance: ErbB1 pY900 phosphopeptide, dye-free

Kd [43]: 13400 nM
Kd [42]: 1520 nM
Substance: ErbB2 pY685 phosphopeptide, dye-free

Kd [41]: 430 nM
Substance: ErbB1 pY978 phosphopeptide, dye-free

Kd [41]: 3460 nM
Substance: ErbB4 pY833 phosphopeptide, dye-free

Substance: …pYVNEPLYLd
apparent Kd (screen) [44]: 6 nM

Kd [45]: 2510 nM
Kd [46]: 256 nM
Kd [47]: 6960 nM
Substance: PIK3R1 N-terminal SH2 domain (domain or fragment)

Kd [48]: 1180 nM and 1610 nM
Kd [49]: 801 nM and 1170 nM
Kd [50]: 1370 nM and 4860 nM
Kd [51]: 1180 nM and 1600 nM
Substance: ErbB4 pY1301 phosphopeptide (18-mer), rhodamine-labelled, for protein microarrays

Substance: …pYSADPTVFd
apparent Kd (screen) [52]: 504 nM

Substance: …pYVREHKDNd
apparent Kd (screen) [53]: 559 nM

Source: PMC3433420
